Test results taken from US20220017634A1 (DENALI THERAPEUTICS, published 2022).
Where a chain is given by its changes, count along the chain named.

B1: Clone CH2A2.4, Fc displayed on phage (designed binder)
chain: APELLGGPSVFLFPPKPKDTLMISRTPEVTCVVVDVSHEDPEVSFEWYVDGVPVRWEWQWPREEQYNSTYRVVSVLTVLHQDWLNGKEYKCKVSNKALPAPIEKTISKAKGQPREPQVYTLPPSRDELTKNQVSLTCLVKGFYPSDIAVEWESNGQPENNYKTTPPVLDSDGSFFLYSKLTVDKSRWQQGNVFSCSVMHEALHNHYTQKSLSLSPGK
notes: As m16
B2: Clone CH2A2.1, Fc displayed on phage (designed binder)
chain: B1 chain with S44E, E46I, P53D, W56Y, W60L
notes: Fc dimer on phage (pIII fusion with c-Myc and 6xHis tags paired with soluble Fc)
B3: Clone CH2A2.5, Fc displayed on phage (designed binder)
chain: B1 chain with S44A, E46T, W60N
notes: As m16
B4: Clone CH2A2.16, Fc displayed on phage (designed binder)
chain: B1 chain with S44W, P53F, R55G, W56V, E57A, W58Y, Q59D, W60V
notes: As m16

Key:
[1] = biological target: T1, human transferrin receptor (human TfR) (human, UniProt P02786 89-760, limits assumed); test: phage ELISA
T1 construct: Recombinant target coated on plates or biotinylated and captured on streptavidin (ELISA, BLI); also called huTfR
T1 sequence (P02786 89-760 limits assumed): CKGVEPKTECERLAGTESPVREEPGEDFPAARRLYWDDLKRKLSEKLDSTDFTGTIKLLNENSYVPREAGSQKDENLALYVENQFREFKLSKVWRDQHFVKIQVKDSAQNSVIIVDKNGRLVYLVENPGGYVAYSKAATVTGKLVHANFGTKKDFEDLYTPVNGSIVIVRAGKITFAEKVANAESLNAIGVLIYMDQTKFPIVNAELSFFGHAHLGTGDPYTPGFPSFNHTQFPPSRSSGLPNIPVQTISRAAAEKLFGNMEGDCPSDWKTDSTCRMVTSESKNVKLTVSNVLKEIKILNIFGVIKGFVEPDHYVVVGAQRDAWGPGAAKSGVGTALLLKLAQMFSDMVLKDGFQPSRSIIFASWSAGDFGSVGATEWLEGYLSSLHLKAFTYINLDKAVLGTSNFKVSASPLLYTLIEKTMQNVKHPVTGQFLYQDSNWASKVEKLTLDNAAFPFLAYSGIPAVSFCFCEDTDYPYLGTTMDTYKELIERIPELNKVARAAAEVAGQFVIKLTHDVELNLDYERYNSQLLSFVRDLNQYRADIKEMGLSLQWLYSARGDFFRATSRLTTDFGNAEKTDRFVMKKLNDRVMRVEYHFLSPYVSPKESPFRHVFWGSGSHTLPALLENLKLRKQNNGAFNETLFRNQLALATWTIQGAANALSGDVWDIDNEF
Protocol: (§1) Clones were selected from panning outputs and grown in individual wells of 96-well deep-well plates. The clones were either induced for periplasmic expression using autoinduction media (obtained from EMD Millipore) or infected with helper phage for phage-display of the individual Fc variants on phage. The cultures were grown overnight and spun to pellet E. coli. For phage ELISA, phage containing supernatant was used directly. For periplasmic expression, pellets were resuspended in 20% sucrose, followed by dilution at 4:1 with water, and shaken at 4° C. for 1 hour. Plates were spun to pellet the solids and supernatant was used in the ELISA.
(§2) ELISA plates were coated with target, typically at […] overnight, then blocked with 1% BSA before addition of phage or periplasmic extracts. […] The plates were washed again, and then developed with TMB reagent and quenched with 2N sulfuric acid. Absorbance at 450 nm was quantified using a plate reader (BioTek®) and binding curves were plotted using Prism software where applicable. Absorbance signal for tested clones was compared to negative control (phage or paraplasmic extract lacking Fc). In some assays, soluble holo-transferrin was added during the binding step, typically at significant molar excess (greater than 10-fold excess).
(§3) Individual CH2A2 variants were expressed on the surface of phage and assayed for binding to human TfR, cyno TfR, or an irrelevant control by ELISA. Expression of Fc was confirmed by ELISA against anti-Myc antibody 9E10, which bound to the C-terminal c-Myc epitope tag. […] The three clones from group 1 also bound to cyno TfR, whereas the one clone from group 2 (i.e., clone 2A2.16) was specific for human TfR.

[2] = biological target: cynomolgus transferrin receptor (cyno TfR) (cynomolgus monkey, UniProt H9EXL1 89-760 (rhesus entry)); test: phage ELISA
Chain of cynomolgus transferrin receptor (cyno TfR) (chain, as listed by the source): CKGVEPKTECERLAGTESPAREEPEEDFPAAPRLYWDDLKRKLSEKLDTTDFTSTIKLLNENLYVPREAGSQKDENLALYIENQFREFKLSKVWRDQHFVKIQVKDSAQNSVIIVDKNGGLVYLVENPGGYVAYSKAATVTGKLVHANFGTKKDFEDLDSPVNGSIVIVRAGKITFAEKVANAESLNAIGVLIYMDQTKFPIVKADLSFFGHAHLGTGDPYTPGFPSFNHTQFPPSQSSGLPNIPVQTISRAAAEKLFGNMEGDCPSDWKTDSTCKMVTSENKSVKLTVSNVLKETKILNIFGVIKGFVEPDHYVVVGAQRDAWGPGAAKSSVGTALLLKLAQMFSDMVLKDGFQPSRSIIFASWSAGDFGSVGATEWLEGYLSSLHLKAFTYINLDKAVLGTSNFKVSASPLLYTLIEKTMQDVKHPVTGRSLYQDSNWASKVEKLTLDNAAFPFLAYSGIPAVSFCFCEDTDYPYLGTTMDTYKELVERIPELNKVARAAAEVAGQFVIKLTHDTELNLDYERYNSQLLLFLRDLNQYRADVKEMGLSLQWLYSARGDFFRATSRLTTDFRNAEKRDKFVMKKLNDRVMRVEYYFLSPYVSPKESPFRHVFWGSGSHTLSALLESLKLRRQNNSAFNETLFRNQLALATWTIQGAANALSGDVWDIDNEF
Protocol: as §1, §2, §3

Row | Binder | binding result [1] | binding result [2]
1 | B1 | binds | –
2 | B2 | binds | –
3 | B3 | binds | –
4 | B4 | binds | no binding
